This assay addresses T1, mutant murine LIGHT (a.a. 79-82, EKLI, deleted), expressed on the cell surface (murine, UniProt Q9QYH9 1-239).
T1 construct: The deletion of a.a; 79-82 is written as two ranges of the natural protein; also called mutant LIGHT; LIGHT^m
T1 sequence: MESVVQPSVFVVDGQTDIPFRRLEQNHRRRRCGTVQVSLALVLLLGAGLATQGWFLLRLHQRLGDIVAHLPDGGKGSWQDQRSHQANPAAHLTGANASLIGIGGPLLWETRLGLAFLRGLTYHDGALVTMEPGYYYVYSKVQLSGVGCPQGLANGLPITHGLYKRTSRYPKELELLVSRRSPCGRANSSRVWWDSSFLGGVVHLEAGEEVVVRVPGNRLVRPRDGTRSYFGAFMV
The assay can be described thus: flow cytometry and fluorescence microscopy, 293 cells expressing mutant murine LIGHT, stained with murine LTbR-Ig and a labelled anti-Ig. The method, then:
293 cells, a human kidney cell line, are commonly and easily used for transient expression of gene at relative high level of gene. 293 cells were seeded in 6 well plate and transfected with 2 μg DNA of pAdCMVmLIGHT (wild type murine LIGHT), pAdCMVmmLIGHT (mutant murine LIGHT) or pAdCMVcommLIGHT (codon optimized mutant murine LIGHT by GNENART, Berlin, Germany). Codon modification is to optimize gene codon to allow higher expression of protein without changing protein sequences. Transfection was performed using Lipofectmin 2000 reagent. 48 hours after transfection, cells were detached and incubated with recombinant mLTbR-huFc protein (10 μg/ml) followed by staining with PE conjugated Donkey anti-human IgG antisera. Cells were washed and analyzed by flowcytometry (BD FACSArray Bioanalyzer). Transfection were carried out in triplicates and only one representative result is shown. […] Cells were also examined visually by fluorescent microscopy. Representative results are shown in lower panel. (see FIG. 18). High expression of LIGHT is required to have stronger response. However, protease digestion of LIGHT often reduces its stability on cell surface.
A general note: In flow cytometry, cells or beads pass a laser one at a time.

B1: recombinant mLTbR-huFc protein (Fc fusion, mouse, UniProt P50284 31-223, looked up)
chain: QLVPPYRIENQTCWDQDKEYYEPMHDVCCSRCPPGEFVFAVCSRSQDTVCKTCPHNSYNEHWNHLSTCQLCRPCDIVLGFEEVAPCTSDRKAECRCQPGMSCVYLDNECVHCEEERLVLCQPGTEAEVTDEIMDTDVNCVPCKPGHFQNTSSPRARCQPHTRCEIQGLVEAAPGTSYSDTICKNPPEPGAMLL
notes: also called mouse LTbR-Ig; murine LTbR-Ig; not shown: human Fc
Take B1: the binding result was “binds”.

Source of the values: patent US20090092640A1 (UNIVERSITY OF CHICAGO, published 2009).
